Assay results as given in publication PMC2939310 (Biochemistry, 2010).

Biological target: the molecule itself
Experiment: SEC

B1: DesVII-C-His6/DesVIII-N-Stag heterodimer (complex, Streptomyces venezuelae)
chain 1: MRVLLTSFAHHTHYYGLVPLAWALLAAGHEVRVASQPALTDTITGSGLAAVPVGTDHLIHEYRVRMAGEPRPNHPAIAFDEARPEPLDWDHALGIEAILAPYFYLLANNDSMVDDLVDFARSWQPDLVLWEPTTYAGAVAAQVTGAAHARVLWGPDVMGSARRKFVALRDRQPPEHREDPTAEWLTWTLDRYGASFEEELLTGQFTIDPTPPSLRLDTGLPTVGMRYVPYNGTSVVPDWLSEPPARPRVCLTLGVSAREVLGGDGVSQGDILEALADLDIELVATLDASQRAEIRNYPKHTRFTDFVPMHALLPSCSAIIHHGGAGTYATAVINAVPQVMLAELWDAPVKARAVAEQGAGFFLPPAELTPQAVRDAVVRILDDPSVATAAHRLREETFGDPTPAGIVPELERLAAQHRRPPADARH
chain 2: MTDDLTGALTQPPLGRTVRAVADRELGTHLLETRGIHWIHAANGDPYATVLRGQADDPYPAYERVRARGALSFSPTGSWVTADHALAASILCSTDFGVSGADGVPVPQQVLSYGEGCPLEREQVLPAAGDVPEGGQRAVVEGIHRETLEGLAPDPSASYAFELLGGFVRPAVTAAAAAVLGVPADRRADFADLLERLRPLSDSLLAPQSLRTVRAADGALAELTALLADSDDSPGALLSALGVTAAVQLTGNAVLALLAHPEQWRELCDRPGLAAAAVEETLRYDPPVQLDARVVRGETELAGRRLPAGAHVVVLTAATGRDPEVFTDPERFDLARPDAAAHLALHPAGPYGPVASLVRLQAEVALRTLAGRFPGLRQAGDVLRPRRAPVGRGPLSVPVSSS
stoichiometry N: 3 heterodimers in the complex
